# Laboratory results published in IntAct's records for PubMed 25678664.
# B1: Claudin-19 (Mus musculus), Q9ET38 (parent)
# chain: MANSGLQLLGYFLALGGWVGIIASTALPQWKQSSYAGDAIITAVGLYEGLWMSCASQSTGQVQCKLYDSLLALDGHIQSARALMVVAVLLGFVAMVLSVVGMKCTRVGDSNPTAKSRVAISGGALFLLAGLCTLTAVSWYATLVTQEFFNPSTPVNARYEFGPALFVGWASAGLAMLGGSFLCCTCPEPERANSIPQPYRSGPSTAAREPVVKLPASVKGPLGV
# Variants of: B1
# Conditions: with eltb_clopf cpe
row,Variant,effect of a mutation on the interaction
1,MANSGLQLLGYFLALGGWVGIIASTALPQWKQSSYAGDSIITAVGLYEGLWMSCASQSTGQVQCKLYDSLLALDGHIQSARALMVVAVLLGFVAMVLSVVGMKCTRVGDSNPTAKSRVAISGGALFLLAGLCTLTAVSWYATLVTQEFFNPSTPVNARYEFGPALFVGWASAGLAMLGGSFLCCTCPEPERANSIPQPYRSGPSTAAREPVVKLPASVKGPLGV [A39S],decreasing interaction strength
2,MANSGLQLLGYFLALGGWVGIIASTALPQWKQSSYAGDRIITAVGLYEGLWMSCASQSTGQVQCKLYDSLLALDGHIQSARALMVVAVLLGFVAMVLSVVGMKCTRVGDSNPTAKSRVAISGGALFLLAGLCTLTAVSWYATLVTQEFFNPSTPVNARYEFGPALFVGWASAGLAMLGGSFLCCTCPEPERANSIPQPYRSGPSTAAREPVVKLPASVKGPLGV [A39R],decreasing interaction strength
3,MANSGLQLLGYFLALGGWVGIIASTALPQWKQSSSAGDAIITAVGLYEGLWMSCASQSTGQVQCKLYDSLLALDGHIQSARALMVVAVLLGFVAMVLSVVGMKCTRVGDSNPTAKSRVAISGGALFLLAGLCTLTAVSWYATLVTQEFFNPSTPVNARYEFGPALFVGWASAGLAMLGGSFLCCTCPEPERANSIPQPYRSGPSTAAREPVVKLPASVKGPLGV [Y35S],decreasing interaction strength
4,MANSGLQLLGYFLALGGWVGIIASTALPQWKQSSYAGDAIITAVGLYEGLWMSCASQSTGQVQCKLYDSLLALDGHIQSARALMVVAVLLGFVAMVLSVVGMKCTRVGDSNPTAKSRVAISGGALFLLAGLCTLTAVSWYATLVTQEFFDPSTPVNARYEFGPALFVGWASAGLAMLGGSFLCCTCPEPERANSIPQPYRSGPSTAAREPVVKLPASVKGPLGV [N150D],decreasing interaction strength
5,MANSGLQLLGYFLALGGWVGIIASTALPQWKQSSYAGDAIITAVGLYEGLWMSCASQSTGQVQCKLYDSLLALDGHIQSARALMVVAVLLGFVAMVLSVVGMKCTRVGDSNPTAKSRVAISGGALFLLAGLCTLTAVSWYATLVTQEFFAPSTPVNARYEFGPALFVGWASAGLAMLGGSFLCCTCPEPERANSIPQPYRSGPSTAAREPVVKLPASVKGPLGV [N150A],decreasing interaction strength
6,MANSGLQLLGYFLALGGWVGIIASTALPQWKQSSYAGDAIATAVGLYEGLWMSCASQSTGQVQCKLYDSLLALDGHIQSARALMVVAVLLGFVAMVLSVVGMKCTRVGDSNPTAKSRVAISGGALFLLAGLCTLTAVSWYATLVTQEFFNPSTPVNARYEFGPALFVGWASAGLAMLGGSFLCCTCPEPERANSIPQPYRSGPSTAAREPVVKLPASVKGPLGV [I41A],decreasing interaction strength
7,MANSGLQLLGYFLALGGWVGIIASTALPQWKQSSYAGDAISTAVGLYEGLWMSCASQSTGQVQCKLYDSLLALDGHIQSARALMVVAVLLGFVAMVLSVVGMKCTRVGDSNPTAKSRVAISGGALFLLAGLCTLTAVSWYATLVTQEFFNPSTPVNARYEFGPALFVGWASAGLAMLGGSFLCCTCPEPERANSIPQPYRSGPSTAAREPVVKLPASVKGPLGV [I41S],decreasing interaction strength
8,MANSGLQLLGYFLALGGWVGIIASTALPQWKQSSYAGDAIVTAVGLYEGLWMSCASQSTGQVQCKLYDSLLALDGHIQSARALMVVAVLLGFVAMVLSVVGMKCTRVGDSNPTAKSRVAISGGALFLLAGLCTLTAVSWYATLVTQEFFNPSTPVNARYEFGPALFVGWASAGLAMLGGSFLCCTCPEPERANSIPQPYRSGPSTAAREPVVKLPASVKGPLGV [I41V],decreasing interaction strength
9,MANSGLQLLGYFLALGGWVGIIASTALPQWKQSSYAGDALITAVGLYEGLWMSCASQSTGQVQCKLYDSLLALDGHIQSARALMVVAVLLGFVAMVLSVVGMKCTRVGDSNPTAKSRVAISGGALFLLAGLCTLTAVSWYATLVTQEFFNPSTPVNARYEFGPALFVGWASAGLAMLGGSFLCCTCPEPERANSIPQPYRSGPSTAAREPVVKLPASVKGPLGV [I40L],decreasing interaction strength
10,MANSGLQLLGYFLALGGWVGIIASTALPQWKQSSYAGDAVITAVGLYEGLWMSCASQSTGQVQCKLYDSLLALDGHIQSARALMVVAVLLGFVAMVLSVVGMKCTRVGDSNPTAKSRVAISGGALFLLAGLCTLTAVSWYATLVTQEFFNPSTPVNARYEFGPALFVGWASAGLAMLGGSFLCCTCPEPERANSIPQPYRSGPSTAAREPVVKLPASVKGPLGV [I40V],decreasing interaction strength
11,MANSGLQLLGYFLALGGWVGIIASTALPQWKQSSYAGDAAITAVGLYEGLWMSCASQSTGQVQCKLYDSLLALDGHIQSARALMVVAVLLGFVAMVLSVVGMKCTRVGDSNPTAKSRVAISGGALFLLAGLCTLTAVSWYATLVTQEFFNPSTPVNARYEFGPALFVGWASAGLAMLGGSFLCCTCPEPERANSIPQPYRSGPSTAAREPVVKLPASVKGPLGV [I40A],decreasing interaction strength
12,MANSGLQLLGYFLALGGWVGIIASTALPQWKQSSYAGDASITAVGLYEGLWMSCASQSTGQVQCKLYDSLLALDGHIQSARALMVVAVLLGFVAMVLSVVGMKCTRVGDSNPTAKSRVAISGGALFLLAGLCTLTAVSWYATLVTQEFFNPSTPVNARYEFGPALFVGWASAGLAMLGGSFLCCTCPEPERANSIPQPYRSGPSTAAREPVVKLPASVKGPLGV [I40S],decreasing interaction strength
